Target: MERS-CoV N protein (MERS-CoV), K9N4V7

TGCGTNCMGKLKCNRC (modifications not checked) [Spike CD-F] gave a percent inhibition of the interaction between Spike CD-Full and N protein of 40%.

Reference: patent publication US20230181681A1, “PEPTIDE FOR SUPPRESSING CORONAVIRUS AND USE THEREOF” (priority 2020, published 2023)
